In US20240358755A1 (IMMATICS BIOTECHNOLOGIES, published 2024):

The binders below were run against T1, HLA-A*03:01 (human) (assay: UV peptide exchange, anti-b2m ELISA; exchange yield grade).
T1 construct: Peptide-receptive MHC class I monomer in the UV-ligand exchange assay
Description: (§1) Candidate peptides for T cell based therapies according to the present invention were further tested for their MHC binding capacity (affinity). The individual peptide-MHC complexes were produced by UV-ligand exchange, where a UV-sensitive peptide is cleaved upon UV-irradiation and exchanged with the peptide of interest as analyzed. Only peptide candidates that can effectively bind and stabilize the peptide-receptive MHC molecules prevent dissociation of the MHC complexes. To determine the yield of the exchange reaction, an ELISA was performed based on the detection of the light chain (β2m) of stabilized MHC complexes. The assay was performed as generally described in Rodenko et al. (Rodenko et al., 2006).
(§2) 96 well MAXISorp plates (NUNC) were coated over night with 2 μg/ml streptavidin in PBS at room temperature, washed 4× and blocked for 1 h at 37° C. in 2% BSA containing blocking buffer. […] Peptide-MHC monomers of the UV-exchange reaction were diluted 100-fold in blocking buffer. Samples were incubated for 1 h at 37° C., washed four times, incubated with 2 μg/ml HRP conjugated anti-β2m for 1 h at 37° C., washed again and detected with TMB solution that is stopped with […]. Absorption was measured at 450 nm.

Binder	peptide exchange yield [%]
VVRASSGLK	50 to 75
TVATQVATSK	50 to 75
KIMEILNLK	≥ 75
TLLSFKTVLFK	≥ 75
ASAIPAGAK	50 to 75
AILVPQPPK	50 to 75
IIVPSFYK	50 to 75
VIFLHQPPK	≥ 75
SVISVLTTPK	≥ 75
KVLVDFLLK	50 to 75
ALAQGANLK	50 to 75
IVFLLQQGEK	50 to 75
SVYMATTLK	≥ 75
ILQLITVNR	50 to 75
AILLPQLPK	≥ 75
LSGPVTFLR	50 to 75

Binder	peptide exchange yield [%]
AVFVNWEQTKK	≥ 75
RTLPLEGSPK	50 to 75
MIFSGVFLR	≥ 75
SMNSKALRWK	50 to 75
SLIPIVPFKS	20 to 50
ETYGTFVLR	50 to 75
STQSSLLYLK	50 to 75
MTYQQPFSNR	≥ 75
AVLGALLRH	≥ 75
MTFVPLLAR	≥ 75
TVTSAIVNR	50 to 75
SLFGGLFTR	≥ 75
ILAASFQAR	50 to 75
RLCPAAPTGK	≥ 75
KLLLLSSVK	50 to 75

These binders were tested against T2, HLA-B*07:02 (human) in the same assay as above.
T2 construct: Peptide-receptive monomer in the UV-ligand exchange assay
Description: as §1, §2

Binder	peptide exchange yield [%]
MPIQVLKGL	≥ 75
MPAFLSRASAL	≥ 75
NPELLVILL	50 to 75
RPWLSSPTGL	≥ 75
APGPRSQGL	50 to 75
YPDVPIGQL	50 to 75
LPHPVNSGL	50 to 75
MPWVLMSPF	≥ 75
SPAPSLARFLSL	≥ 75
RPSLPCRSF	50 to 75
TPSHSTPSF	50 to 75
RPQGVGPAA	≥ 75
APLLPGPAA	≥ 75
RPIWDVRSA	≥ 75
IPISIFKMA	50 to 75
SPVETRSLL	50 to 75
APLRAGWAA	≥ 75
SPLPHLGPL	50 to 75
SPSSPLLLLA	50 to 75

Binder	peptide exchange yield [%]
LPTRSLPAF	50 to 75
AVDLGVLEL	50 to 75
SLRVPSPAL	50 to 75
APQPRSLAA	≥ 75
SPIGLSLIL	≥ 75
MPKLFLTAC	≥ 75
MPFLKVPPL	≥ 75
APSLARFLSL	≥ 75
VPHHLLSSV	≥ 75
QPAPQPLL	50 to 75
MPANFETIGF	≥ 75
SPVSASWIL	≥ 75
VVHGGMSIF	20 to 50
RPLILIRI	20 to 50
MPCTTILRI	≥ 75
LPVHGPLPLLL	50 to 75
HPRESLNMLVAF	≥ 75
SPSSNSREL	50 to 75
